From the Human Domainome abundance scans (Beltran et al. 2025)
± gives the uncertainty stated by the source.

B1: Protein C-ets-1, residues 55 to 135; numbered along this chain, P14921 (parent)
chain: GFTKEQQRLGIPKDPRQWTETHVRDWVMWAVNEFSLKGVDFQKFCMNGAALCALGKDCFLELAPDFVGDILWEHLEILQKE

Variants of: B1
Assay: abundance fitness (aPCA) (normalised: wild type 0, dead -1); higher = more abundant; growth selection in yeast, the domain comes from the species named
Conditions: Homo sapiens

Variant	abundance fitness
GFTKEQQRLGIPKDPRQWTETHVRDWVMWAVNEFSLKGVDFQKFCDNGAALCALGKDCFLELAPDFVGDILWEHLEILQKE [M46D]	-0.777 ± 0.12
YFTKEQQRLGIPKDPRQWTETHVRDWVMWAVNEFSLKGVDFQKFCMNGAALCALGKDCFLELAPDFVGDILWEHLEILQKE [G1Y]	-0.114 ± 0.2
GFTKEQQRLGIPKDPRQWTETHVRDWVMWAVNEFSLKQVDFQKFCMNGAALCALGKDCFLELAPDFVGDILWEHLEILQKE [G38Q]	-0.221 ± 0.062
GFTKEQQRLGIPKDPRQWTETHVRRWVMWAVNEFSLKGVDFQKFCMNGAALCALGKDCFLELAPDFVGDILWEHLEILQKE [D25R]	-0.023 ± 0.027
GFTKEQQRLGIPKDPRFWTETHVRDWVMWAVNEFSLKGVDFQKFCMNGAALCALGKDCFLELAPDFVGDILWEHLEILQKE [Q17F]	-0.1 ± 0.076
GFTKEQQRLGIPKDPRQWTETHVRDWVMWAVNEFSLKGVDFQKFCMNGAALCALGKDCFLELAPDFVGDILQEHLEILQKE [W72Q]	-0.804 ± 0.11
GFTKEQQRLGIPKDPRQWTETHVRDWVMWAVNEFSLKGVDFQKFCMNGAALCALGKDCFLELAPDFVGDILSEHLEILQKE [W72S]	-0.735 ± 0.062
GFTKEQQRLGIPKDPRQWTETHVRDWVMWAVNEFSLKGVDFQKFCMNGAALCALGKDCSLELAPDFVGDILWEHLEILQKE [F59S]	-0.918 ± 0.063
GFTKEQQRLGIPKDPRQWTETHVRDWVMWAVNEFSLKGVDFQKFCMNGAALCALGKDCFLELAPFFVGDILWEHLEILQKE [D65F]	-0.221 ± 0.08
GFTKEQQRLGIPKDPRQWTETHVRDWVMWAVNEFSLKGVDFQKFCMNGAALCALGKDCFLALAPDFVGDILWEHLEILQKE [E61A]	-0.012 ± 0.032
GFTKEQQRLGIPKDPRQWTETHVRDWVMWAVNEFSLKGVDFQKFCMNGAALCALGKDCFLEVAPDFVGDILWEHLEILQKE [L62V]	-0.34 ± 0.035
GFTKEQQRLGIPKDPRQWTETHVRDWVMWAVNEFSLKGVDFQKFCMNGAALCALGKDRFLELAPDFVGDILWEHLEILQKE [C58R]	0.023 ± 0.027
GFTKEQQRLGIPKDPRQWTETHVRDWVMWAVNEFSLKGVDFQKFCMNGAATCALGKDCFLELAPDFVGDILWEHLEILQKE [L51T]	-0.961 ± 0.11
GFTKEQQRLGIEKDPRQWTETHVRDWVMWAVNEFSLKGVDFQKFCMNGAALCALGKDCFLELAPDFVGDILWEHLEILQKE [P12E]	-0.413 ± 0.086
GFTKEQQRLGIPKDPRQWTETHVRDWVMWAVNEFSLKGVDFQKFCMNGAALIALGKDCFLELAPDFVGDILWEHLEILQKE [C52I]	-0.029 ± 0.052
GFTKEQQRLGIPKDPNQWTETHVRDWVMWAVNEFSLKGVDFQKFCMNGAALCALGKDCFLELAPDFVGDILWEHLEILQKE [R16N]	0.031 ± 0.082
GFTSEQQRLGIPKDPRQWTETHVRDWVMWAVNEFSLKGVDFQKFCMNGAALCALGKDCFLELAPDFVGDILWEHLEILQKE [K4S]	-0.055 ± 0.043

Variant	abundance fitness
GFTKEQQRLGIPKDPRQWSETHVRDWVMWAVNEFSLKGVDFQKFCMNGAALCALGKDCFLELAPDFVGDILWEHLEILQKE [T19S]	-0.052 ± 0.033
GFTKEQQRLGIPKDPRQWTETHVRDWVMWAVNEFSLKWVDFQKFCMNGAALCALGKDCFLELAPDFVGDILWEHLEILQKE [G38W]	-0.467 ± 0.047
GFTKEQQRLGIPKDPRTWTETHVRDWVMWAVNEFSLKGVDFQKFCMNGAALCALGKDCFLELAPDFVGDILWEHLEILQKE [Q17T]	0.033 ± 0.053
GFTKEQQRLGIPKDPRQWTETHVRDWVMWAVNEFSLKGVDFQKFCMNGAALCALGKDCFLELAPDFVGDILWEHLEILHKE [Q79H]	-0.178 ± 0.12
GFTKEQQRLGIPKDPRQWTETHVRDWVMWAVNEFSLKGVDFQKFCMNCAALCALGKDCFLELAPDFVGDILWEHLEILQKE [G48C]	-0.884 ± 0.13
GFTKEQMRLGIPKDPRQWTETHVRDWVMWAVNEFSLKGVDFQKFCMNGAALCALGKDCFLELAPDFVGDILWEHLEILQKE [Q7M]	0.04 ± 0.057
GFTKEQQRLGIPKDPRQWTETHVRDWVMWAVNEFSLKGVDFSKFCMNGAALCALGKDCFLELAPDFVGDILWEHLEILQKE [Q42S]	-0.007 ± 0.036
GFTKEQQRLGIPKDPRQWTETHVRDWVMWAVNEFSLKGVDFQKFCMNGAALCALGKDCFLELAPDFVEDILWEHLEILQKE [G68E]	-0.994 ± 0.12
GFTKEQQRAGIPKDPRQWTETHVRDWVMWAVNEFSLKGVDFQKFCMNGAALCALGKDCFLELAPDFVGDILWEHLEILQKE [L9A]	-0.182 ± 0.041
GFTKEQQRLGIPKDPRQWTETHVRDWVMWAVNEFSLKGVDFRKFCMNGAALCALGKDCFLELAPDFVGDILWEHLEILQKE [Q42R]	-0.017 ± 0.034
GFTKEQQRLGIPKDPRQWTETHVRDWVMWAVNEFSLKGVDFQKFCMNGAALCALGKDCFLELAPDFVDDILWEHLEILQKE [G68D]	-0.792 ± 0.12
GFTKEQQRLGIPKDPRQWTETHVRDWVMWAVNEFSLKGVDFQKFCMNGAALCALGKDCFLELAPDFVGVILWEHLEILQKE [D69V]	-0.098 ± 0.041
GFTKEQQRLGIPKDPRQWTETHVRDWVMWAVNEFSLKGVDFQKFCMNGAALCALGKDCFLELAPDFVGDIRWEHLEILQKE [L71R]	-0.979 ± 0.08
GFTKEQQRLGIPKDPRQWTETHVRDWVMWAVNEFSLKGVDFQKFCMNGAALCALGKDCDLELAPDFVGDILWEHLEILQKE [F59D]	-0.782 ± 0.078
GFTKEQQRLGIPKDPRQWTETHVRDWVMWAVNEFSLKGVDFQKFCMNGAALCALGKDCFLELAPDFVGDILWVHLEILQKE [E73V]	-0.546 ± 0.053
GFTKEKQRLGIPKDPRQWTETHVRDWVMWAVNEFSLKGVDFQKFCMNGAALCALGKDCFLELAPDFVGDILWEHLEILQKE [Q6K]	-0.143 ± 0.08
GFTKEQQRLGIPKDPRQWTETHVRDWVMWAVNEFSLKGMDFQKFCMNGAALCALGKDCFLELAPDFVGDILWEHLEILQKE [V39M]	-0.267 ± 0.065
